Three molecules from US20180057567A1 (Sanofi, published 2018) can be followed below.

One assay has as its target T1, recombinant human IL4 (human, UniProt P05112 25-153).
T1 construct: Bought protein
T1 sequence (looked up): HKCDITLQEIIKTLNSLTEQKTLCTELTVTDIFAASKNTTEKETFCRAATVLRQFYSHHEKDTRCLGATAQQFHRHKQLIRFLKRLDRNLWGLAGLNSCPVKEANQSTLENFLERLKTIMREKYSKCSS
In words: SPR (Biacore).

A further assay addresses T2, CD3.
T2 chain 1: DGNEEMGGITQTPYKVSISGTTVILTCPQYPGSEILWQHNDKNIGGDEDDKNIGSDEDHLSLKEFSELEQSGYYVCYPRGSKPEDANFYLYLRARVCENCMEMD
T2 chain 2: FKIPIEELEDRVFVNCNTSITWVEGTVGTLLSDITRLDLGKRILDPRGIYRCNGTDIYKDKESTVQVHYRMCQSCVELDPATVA
In words: SPR (Biacore), CD3 as analyte.

The next assay addresses T3, CD123 (UniProt P26951 19-305, limits assumed).
T3 sequence (looked up): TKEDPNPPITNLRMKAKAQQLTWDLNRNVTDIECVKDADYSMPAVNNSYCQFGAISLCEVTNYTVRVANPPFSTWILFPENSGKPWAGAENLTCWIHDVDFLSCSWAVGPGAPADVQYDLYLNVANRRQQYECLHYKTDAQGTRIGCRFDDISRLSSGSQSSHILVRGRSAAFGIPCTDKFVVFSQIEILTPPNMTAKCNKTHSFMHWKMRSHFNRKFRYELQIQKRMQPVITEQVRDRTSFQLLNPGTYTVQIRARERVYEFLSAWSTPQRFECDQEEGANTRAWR
The assay is described as follows: SPR (Biacore), CD123 as analyte.

B1: bispecific Fab-like fragment in the CODV bivalent Fab configuration (ECH2), anti-IL13 (huBB13) x anti-IL4 (hu8D4-8) (Example 6) (bispecific antibody)
chain 1: EVQLKESGPGLVAPGGSLSITCTVSGFSLTDSSINWVRQPPGKGLEWLGMIWGDGRIDYADALKSRLSISKDSSKSQVFLEMTSLRTDDTATYYCARDGYFPYAMDFWGQGTSVTVSSSQVQLQQSGPELVKPGASVKISCKASGYSFTSYWIHWIKQRPGQGLEWIGMIDPSDGETRLNQRFQGRATLTVDESTSTAYMQLRSPTSEDSAVYYCTRLKEYGNYDSFYFDVWGAGTLVTVSSRTASTKGPVASRDFTPPTVKILQSSCDGGGHFPPTIQLLCLVSGYTPGTIQITWLEDGQVMDVDLSTASTTQEGELASTQSELTLSQKHWLSDRTYTCQVTYQGHTFEDSTKKCAGSHHHHHHHH
chain 2: DIQMTQSPASLSVSVGDTITLTCHASQNIDVWLSWFQQKPGNIPKLLIYKASNLHTGVPSRFSGSGSGTGFTLTISSLQPEDIATYYCQQAHSYPFTFGGGTKLEIKGQPKAAPDIVLTQSPASLAVSLGQRATISCRASESVDSYGQSYMHWYQQKAGQPPKLLIYLASNLESGVPARFSGSGSRTDFTLTIDPVQAEDAATYYCQQNAEDSRTFGGGTKLEIKTKGPSRTVASRDFTPPTVKILQSSCDGGGHFPPTIQLLCLVSGYTPGTIQITWLEDGQVMDVDLSTASTTQEGELASTQSELTLSQKHWLSDRTYTCQVTYQGHTFEDSTKKCA
notes: An 8x histidine tag was added for purification; also called CH2E-pseudo-CODV antibody
For the molecule B1, the binding result with recombinant human IL4 is “binds”.

B2: antibody in Bivalent Fab configuration, MCH2 domain of one Fab-like fragment (CD3) linked to a variable domain of the other Fab (CD123) (Example 5) (bispecific antibody)
light 1: DIVMTQTPLSLSVTPGQPASISCKSSQSLVHNNANTYLSWYLQKPGQSPQSLIYKVSNRFSGVPDRFSGSGSGTDFTLKISRVEAEDVGVYYCGQGTQYPFTFGSGTKVEIKRTVIAELPPKVSVFVPPRDGFFGNPRKSKLICQATGFSPRQIQVSWLREGKQVGSGVTTDQVQAEAKESGPTTYKVTSTLTIKESDWLGQSMFTCRVDHRGLTFQQNASSMCVP
heavy: QVQLVESGGGVVQPGRSLRLSCAASGFTFTKAWMHWVRQAPGKQLEWVAQIKDKSNSYATYYADSVKGRFTISRDDSKNTLYLQMNSLRAEDTAVYYCRGVYYALSPFDYWGQGTLVTVSSGGVIAELPPKVSVFVPPRDGFFGNPRKSKLICQATGFSPRQIQVSWLREGKQVGSGVTTDQVQAEAKESGPTTYKVTSTLTIKESDWLGQSMFTCRVDHRGLTFQQNASSMCVPGGGSEVQLVQSGAEVKKPGESLKISCKGSGYSFTDYYMKWARQMPGKGLEWMGDIIPSSGATFYNQKFKGQVTISADKSISTTYLQWSSLKASDTAMYYCARSHLLRASWFAYWGQGTMVTVSSASTKGPSVFPLAPSSKSTSGGTAALGCLVKDYFPEPVTVSWNSGALTSGVHTFPAVLQSSGLYSLSSVVTVPSSSLGTQTYICNVNHKPSNTKVDKKVEPKSCDKTHTHHHHHH
light 2: not shown
notes: also called bispecific bivalent Fab; bivalent bispecific Fab fragment
Turning to B2, in the assay with CD3, the Kd was 5.71 nM, the off-rate constant (koff) came out at 0.0009 s⁻¹ and the on-rate constant (kon) turned out to be 158000 M⁻¹ s⁻¹. In the assay with CD123, this molecule came in with a Kd of 0.0838 nM, an off-rate constant (koff) of 3.77e-05 s⁻¹ and an on-rate (kon) of 450000 M⁻¹ s⁻¹.

B3: F(ab')2-like antibody with ECH2 replacing the hinge region, anti-IL4 (hu8D4-8) CH1/kappa Fab and anti-IL13 (huBB13) MCH2 Fab (Example 7) (bispecific antibody)
heavy 1: VQLQQSGPELVKPGASVKISCKASGYSFTSYWIHWIKQRPGQGLEWIGMIDPSDGETRLNQRFQGRATLTVDESTSTAYMQLRSPTSEDSAVYYCTRLKEYGNYDSFYFDVWGAGTLVTVSSASTKGPSVFPLAPSSKSTSGGTAALGCLVKDYFPEPVTVSWNSGALTSGVHTFPAVLQSSGLYSLSSVVTVPSSSLGTQTYICNVNHKPSNTKVDKKVEPKSCGSGSGSVASRDFTPPTVKILQSSCDGGGHFPPTIQLLCLVSGYTPGTIQITWLEDGQVMDVDLSTASTTQEGELASTQSELTLSQKHWLSDRTYTCQVTYQGHTFEDSTKKCA
light 1: DIQMTQSPASLSVSVGDTITLTCHASQNIDVWLSWFQQKPGNIPKLLIYKASNLHTGVPSRFSGSGSGTGFTLTISSLQPEDIATYYCQQAHSYPFTFGGGTKLEIKRTVAAPSVFIFPPSDEQLKSGTASVVCLLNNFYPREAKVQWKVDNALQSGNSQESVTEQDSKDSTYSLSSTLTLSKADYEKHKVYACEVTHQGLSSPVTKSFNRGEC
heavy 2: EVQLKESGPGLVAPGGSLSITCTVSGFSLTDSSINWVRQPPGKGLEWLGMIWGDGRIDYADALKSRLSISKDSSKSQVFLEMTSLRTDDTATYYCARDGYFPYAMDFWGQGTSVTVSSGSGSGSVIAELPPKVSVFVPPRDGFFGNPRKSKLICQATGFSPRQIQVSWLREGKQVGSGVTTDQVQAEAKESGPTTYKVTSTLTIKESDWLGQSMFTCRVDHRGLTFQQQASSMCVPGSGSGSVASRDFTPPTVKILQSSCDGGGHFPPTIQLLCLVSGYTPGTIQITWLEDGQVMDVDLSTASTTQEGELASTQSELTLSQKHWLSDRTYTCQVTYQGHTFEDSTKKCAGSHHHHHHHH
light 2: DIVLTQSPASLAVSLGQRATISCRASESVDSYGQSYMHWYQQKAGQPPKLLIYLASNLESGVPARFSGSGSRTDFTLTIDPVQAEDAATYYCQQNAEDSRTFGGGTKLEIKRTVIAELPPKVSVFVPPRDGFFGNPRKSKLICQATGFSPRQIQVSWLREGKQVGSGVTTDQVQAEAKESGPTTYKVTSTLTIKESDWLGQSMFTCRVDHRGLTFQQQASSMCVP
notes: also called pseudo hinge-CH2E-hybrid-Fab2
Regarding B3, the binding result with recombinant human IL4 is “binds”.
